From patent US20150376261A1

Legend:
hMor1-34GS-Nb33 (human) [1] = test: radioligand competition against [3H]-diprenorphine on Sf9 membranes
hMor1-34GS-Nb10 (human) = test: as above
hMor1-34GS-Nb33 (human) [2] = test: ratio of the IC50s on hMor1-34GS-Nb10 (reference) and hMor1-34GS-Nb33 membranes, [3H]-diprenorphine competition

| IC50 (hMor1-34GS-Nb33 (human) [1]) [nM] | IC50 (hMor1-34GS-Nb10 (human)) [nM] | IC50Nb10/IC50Nb33 (hMor1-34GS-Nb33 (human) [2]) | Substance |
| --- | --- | --- | --- |
| 18 | 655 |  | Dmt1-Dalda (peptide) |
| 3.8 | 76.7 | 20 | KGOP01 (peptide) |
